Experimental data from the supplement of paper PMC12042874.
± gives the uncertainty stated by the source.

Test: amyloid nucleation score (Sup35N fusion, yeast selection) (log enrichment); library NNK2; higher = more nucleation; inactive = no reads after selection
Procedure, shortened: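 The nucleation score is the log enrichment of output over input reads, calculated with DiMSum and centred on the mode score of non-aggregating sequences. Sequences with under 100 input reads were excluded. Reads came from Illumina sequencing of plasmid inserts from psi-negative yeast expressing Sup35N fused to peptides of 20 random codons, induced 24 hours with 100 μM copper sulfate and grown 7 days at 30°C without adenine and uracil.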

SSKSHLSLLK and SSLEFYVFWYP are within error of each other in amyloid nucleation score: -0.849 ± 0.4 for the first, -1.14 ± 1 for the second.

SSLNM and SSLVNTACDTL are within error of each other in amyloid nucleation score: -0.595 ± 0.61 for the first, -0.036 ± 0.29 for the second.

SSLYHLAGHGTAGSRLTSGR and SSMGIVGPYGWFSTSMVNIV are within error of each other in amyloid nucleation score: 0.511 ± 0.41 for the first, 0.895 ± 0.28 for the second.

Compared with SSNALKGDGSFGQNEVESAK, SSNYYVLCFTMPYWFYSLV is higher in amyloid nucleation score: -0.043 ± 0.32 for the first, 1.02 ± 0.33 for the second.

SSQTGTCFARLQSAVFQVVW and SSREYEEGMAGTGGLELLSL are within error of each other in amyloid nucleation score: 1.69 ± 0.36 for the first, 1.16 ± 0.44 for the second.

SSRQTVGNTPASDLLRDYCW and SSRVVVLNYATRRGGQVSGR are within error of each other in amyloid nucleation score: 0.388 ± 0.38 for the first, 0.496 ± 0.38 for the second.

SSTSLLNLPCWDRIFHTVRL and SSTWLGLS are within error of each other in amyloid nucleation score: -0.429 ± 0.42 for the first, 0.112 ± 1.1 for the second.

Going from SSWLEVAMTALRSIWYMD to SSYNSGLRLLSFTCCV, the amyloid nucleation score rises from 0.103 ± 0.26 to 9.355 ± 0.052.

First: SSYVVNSERVSDVARHSTLQ
Second: STCTLKCWRWMPWTSFSFRC
The amyloid nucleation score of the first is higher: 1.91 ± 0.21 for the first, 1.3 ± 0.21 for the second.

STEAVMLQGVFHRSCCR and STEERRWNN are within error of each other in amyloid nucleation score: 0.761 ± 0.46 for the first, -0.217 ± 0.79 for the second.

First: STKSSVAVGSDSWNRSHRQV
Second: STLGPLGPSGYSRRARRLLA
The amyloid nucleation score of the first is lower: 0.773 ± 0.22 for the first, 7.415 ± 0.06 for the second.

Compared with STMLWLCFFMGKLSVDTVFE, STTVTLGQSICFYLSCGLRD is higher in amyloid nucleation score: -0.6 ± 0.53 for the first, 9.214 ± 0.051 for the second.

Going from SVANERR to SVCVWAYACRDRTPLLGRFC, the amyloid nucleation score falls from 5.7 ± 0.065 to 0.508 ± 0.56.

Compared with SVDIGYS, SVDRVYGSTFIFSRGDR is higher in amyloid nucleation score: 0.586 ± 0.81 for the first, 8.113 ± 0.022 for the second.

Going from SVECKCYYRL to SVEMRTNLTAGWRILIRWSS, the amyloid nucleation score falls from 5.59 ± 0.062 to 1.2 ± 0.14.

Compared with SVGEFSVRWAACGDLWCW, SVGRHS is lower in amyloid nucleation score: 0.725 ± 0.2 for the first, -0.841 ± 0.62 for the second.

Going from SVIEISECLERVVRWHRVAG to SVKHGMLCYTLLDNMRCTVE, the amyloid nucleation score falls from 1.76 ± 0.33 to -0.087 ± 0.26.

Compared with SVKILPVISTTPFGV, SVLEANMHAVWTGRYEN is higher in amyloid nucleation score: -0.922 ± 0.39 for the first, 0.713 ± 0.22 for the second.

SVNAIRTQGLRSRMQFMKTG and SVPRYRSLMKRCH are within error of each other in amyloid nucleation score: -0.394 ± 1.1 for the first, 0.189 ± 0.32 for the second.

Compared with SVQVMCQSWPLSPLFAPRHR, SVRGRNDESAMLTLQRELRY is lower in amyloid nucleation score: 5.92 ± 0.039 for the first, -0.343 ± 1.1 for the second.

First: SVSLDMGFSLDSHMRGEGRS
Second: SVTVTSLWHGTEL
The amyloid nucleation score of the first is higher: 5.22 ± 0.057 for the first, -0.22 ± 1.1 for the second.

Going from SVTYWGWPTILAVRKCLFNS to SVVMTIHNIGWMLRCSGIVY, the amyloid nucleation score falls from 2.5 ± 0.091 to -0.823 ± 0.56.

Compared with SVVVWDSSPCIGGSRVADS, SVWCWDHSILLGFNLCNRKM is higher in amyloid nucleation score: 0.56 ± 0.57 for the first, 6.648 ± 0.062 for the second.

SVWDYC and SVYDPAYVLNMNTLSTSSNL are within error of each other in amyloid nucleation score: -0.053 ± 0.39 for the first, 0.451 ± 0.33 for the second.

SVYEIYWRVT and SVYENYRVTISLSRSSITSC are within error of each other in amyloid nucleation score: -0.348 ± 0.65 for the first, -1.1 ± 0.61 for the second.

First: SVYGQRNTIIFEFSWMRTAS
Second: SVYVCVKWESVSVLVLY
The amyloid nucleation score of the first is higher: 7.492 ± 0.04 for the first, 1.86 ± 0.12 for the second.

First: SWCFYMKGEWWYLLFHSNRS
Second: SWCIMALRTF
The amyloid nucleation score of the first is lower: -1.73 ± 0.55 for the first, 0.249 ± 0.65 for the second.

Compared with SWCVNVLAYSEKAFSRCVVM, SWELFSGAWTLGNRYPFRHK is lower in amyloid nucleation score: 8.583 ± 0.048 for the first, -0.079 ± 0.55 for the second.

First: SWETKVHIYMTDMLFSRHMS
Second: SWMRFVKKIRQDAVRAVLIG
The amyloid nucleation score of the first is higher: 2.63 ± 0.086 for the first, 1.36 ± 0.4 for the second.

Compared with SWSWSMGGNFRMVWSL, SWTCHSFYFSDSFRHGYR is lower in amyloid nucleation score: 5.33 ± 0.06 for the first, 2.63 ± 0.069 for the second.

Compared with SWTSIVQIVILCGFRQWLAR, SWWIVFWGHTTTRWNCSLGD is lower in amyloid nucleation score: 0.076 ± 0.39 for the first, -0.831 ± 0.35 for the second.

SYAESLPLSDYNAVVRFPWT and SYCLDDMRPWLHESTLSLSM are within error of each other in amyloid nucleation score: -0.304 ± 1.1 for the first, -0.033 ± 0.3 for the second.

First: SYGMRTEWTVCIAIRLHASN
Second: SYGVLGDLASGTSRTID
The amyloid nucleation score of the first is higher: 1.31 ± 0.52 for the first, -1.25 ± 0.64 for the second.

SYHWTGVFGLVHDFGLCCGS and SYNLNSNRVESIDFSSIIIV are within error of each other in amyloid nucleation score: 0.425 ± 0.38 for the first, -0.459 ± 1.1 for the second.

SYPVDEMMRFCLFVMDTGQL and SYRLYFFMGFDMLYLCMG are within error of each other in amyloid nucleation score: 0.106 ± 0.54 for the first, -0.177 ± 0.79 for the second.

Compared with SYTVAYISYFMLLLDGWGNR, SYVDNWNISRVYLRLTYSVY is lower in amyloid nucleation score: 0.815 ± 0.12 for the first, -0.96 ± 0.49 for the second.

Going from SYVQMTDT to SYVVCSVIGYYDYLRSRPSC, the amyloid nucleation score rises from -0.146 ± 1 to 9.631 ± 0.036.

SYYEWARGTSVVLIAFVTSF and SYYGFLSFCSKTCMPLMWLE are within error of each other in amyloid nucleation score: -0.189 ± 0.48 for the first, -0.844 ± 0.54 for the second.

First: TADISLYLRHST
Second: TAFNIVSCSGLCSYYQFRF
The amyloid nucleation score of the first is lower: 6.442 ± 0.049 for the first, 8.109 ± 0.03 for the second.

Going from TAHYDVGC to TANKLLVSIIKIEEYVSRGT, the amyloid nucleation score rises from -0.283 ± 1 to 4.73 ± 0.058.

Compared with TCCQDYLLIWYCMDSIRNVR, TCKVRLRHVDYNCIMVLLLM is lower in amyloid nucleation score: 9.611 ± 0.034 for the first, -0.359 ± 0.45 for the second.

Going from TCLSQQCTEIEWIKFTPMSR to TCSGWTWRQGLLVLSCRMIL, the amyloid nucleation score falls from 4.31 ± 0.056 to 0.287 ± 0.38.

Going from TCSRERGRRWFGICASYSCE to TCVALSYLVGGSALNS, the amyloid nucleation score falls from 0.629 ± 0.47 to -0.818 ± 0.78.

TCVCWGPCRSV and TCVRWYGNIW are within error of each other in amyloid nucleation score: -0.895 ± 1 for the first, -0.424 ± 0.27 for the second.

First: TCYWRGLAGYR
Second: TDCMPMHVYGDYYLMGMSRE
The amyloid nucleation score of the first is higher: 3.28 ± 0.14 for the first, -0.555 ± 0.33 for the second.

TDCRFIIVYMVIGSFLYTRV and TDHMHKISRVHRDKKMSVGF are within error of each other in amyloid nucleation score: -0.747 ± 1.1 for the first, -0.707 ± 1.1 for the second.

Compared with TDLECKQLG, TESGGSLYNPQLIPDIQGSH is lower in amyloid nucleation score: 1.88 ± 0.11 for the first, -0.552 ± 1.1 for the second.

Going from TFAIIRIII to TFHGFMCGQTLRGPFRLSWW, the amyloid nucleation score rises from 1.37 ± 0.33 to 3.95 ± 0.088.

Compared with TFKFWCVTKETEQHVSYASR, TFLSHEGRGLRCLYYHMMPG is lower in amyloid nucleation score: 4.54 ± 0.067 for the first, 3.79 ± 0.14 for the second.

Going from TFLSSC to TFLWKFMLNVTTFFIFPKPV, the amyloid nucleation score falls from 0.096 ± 0.32 to -1.77 ± 1.

TFMWVDSMP and TFNIGNELVT are within error of each other in amyloid nucleation score: -0.525 ± 0.48 for the first, -0.99 ± 0.37 for the second.

Going from TFNLKPRFLFV to TFNLVILGVGHSHHFQRNNH, the amyloid nucleation score rises from 5.18 ± 0.087 to 8.269 ± 0.046.

TFRLRECWCDADLRVGVMSL and TFRWCHCYLTKEHVRFTCRA are within error of each other in amyloid nucleation score: 0.778 ± 0.47 for the first, 1.55 ± 0.53 for the second.

First: TFSVQAVNLFSIWVLSGPGD
Second: TFTSRGMMSLGFGRR
The amyloid nucleation score of the first is higher: 8.02 ± 0.034 for the first, 6.01 ± 0.08 for the second.

Compared with TFVGSFEILAGNVLCVNKTK, TFVHIIHNFVGVQHFKKLGC is lower in amyloid nucleation score: 6.031 ± 0.048 for the first, 5 ± 0.094 for the second.

Going from TGAYI to TGCDVLRIVTRMMGKNKRYF, the amyloid nucleation score rises from -1.94 ± 0.75 to -0.047 ± 1.1.

Going from TGCNFHGRRFRCGYNGLGNP to TGDMQVAVYCVILGGFSMGM, the amyloid nucleation score rises from -0.59 ± 0.37 to 4.44 ± 0.055.

In the case of TGFKCSLLTY, the amyloid nucleation score is reported as -0.91 ± 0.62.

With SSRTPNYA the amyloid nucleation score was “inactive”.
For SSYGFINYMTS, the amyloid nucleation score was “inactive”.
With SWEKIGDCYIRWYLLHAGCL the amyloid nucleation score was “inactive”.
With SWKDYHN the amyloid nucleation score was “inactive”.
For SWLSYSVRSM, the amyloid nucleation score was “inactive”.
With SYCYWMFSVLGGSSASEFRY the amyloid nucleation score was “inactive”.
In the case of SYIHRAWAYM, the amyloid nucleation score is reported as “inactive”.
With SYLKETMTGLLPLG the amyloid nucleation score was “inactive”.
With SYNVFDVQIVLRYIVKLFTG the amyloid nucleation score was “inactive”.
In the case of TAWHFPCRQRDLQLVSKVTG, the amyloid nucleation score is reported as “inactive”.
For TEELRRFCGSFCTGYISMVW, the amyloid nucleation score was “inactive”.
In the case of TEIHNT, the amyloid nucleation score is reported as “inactive”.
